Kd, koff and kon data for 1 molecule are collected here from KR20220013297A (dated 2022).

In assay [1] the target is T1, SARS-CoV-2 바이러스 표면 단백질 (RBD), WT (SARS-CoV-2, UniProt P0DTC2 319-541). In words: BLI (Octet), Full IgG culture supernatant on SARS-CoV-2 RBD. (BLI is a label-free optical method that tracks binding on a fibre tip over time.)
Assay [2] deals with T1, SARS-CoV-2 바이러스 표면 단백질 (RBD), WT. Kind of assay: BLI (Octet), Full IgG on RBD WT.

B1: No. 32 항체 (Full IgG) (antibody, V domains shown)
VH: EVQLVQSGGGLIQPGGSLRLSCAASEFIVSSNYMTWVRQAPGKGLEWVSIIYPGGSTYYADSVKGRFTISRDNSKNTLYLRMNSLRAEDTAVYYCARDLPLTGTTLDYWGQGTLVTVSS
VL: not shown
One may read the Kd as the concentration at which binding is half-saturated. Low values mean tighter binding, high ones weaker binding. What is called koff is a measure of how fast the partners let go of each other. Read a high koff as a short-lived complex. The kon is the second-order rate constant of association. Molecule B1 came in with an equilibrium dissociation constant (Kd) in assay [1] of 0.147 nM. Moreover, in assay [2], the Kd turned out to be 0.305 nM, the koff amounted to 0.000193 s⁻¹ and the kon is 633000 M⁻¹ s⁻¹.
